# From the MegaScale stability set (Tsuboyama et al. 2023)
# B1: EEHEE_rd4_0763 (parent)
# chain: LTVHVGNVTYHFDNPEQAEEWAKRMAKKYQGQIHVKDGQFRIE
# Variants of: B1
# Assay: folding stability dG (cDNA display proteolysis); higher = more stable
# Details: PBS, room temperature
row,Variant,folding stability dG [kJ/mol]
1,LTDHVGNVTYHFDNPEQAEEWAKRMAKKYQGQIHVKDGQFRIE [V3D],0.791
2,LTVHVGNVTYHFDNPECAEEWAKRMAKKYQGQIHVKDGQFRIE [Q17C],10.9
3,LTVHVGNVTYHFDNPEFAEEWAKRMAKKYQGQIHVKDGQFRIE [Q17F],5.69
4,LTVHVGNVTYHFDNPEMAEEWAKRMAKKYQGQIHVKDGQFRIE [Q17M],6.75
5,LTVHVGNVTYHFDNPEVAEEWAKRMAKKYQGQIHVKDGQFRIE [Q17V],6.57
6,LTVHVGNVTYHFDNEEQAEEWAKRMAKKYQGQIHVKDGQFRIE [P15E],6.13
7,LTVHVGNVTYHFDNAEQAEEWAKRMAKKYQGQIHVKDGQFRIE [P15A],7.12
8,LTVHVGNVTYHFDNMEQAEEWAKRMAKKYQGQIHVKDGQFRIE [P15M],7.22
9,LTVHVGNVTYHFDNPEQAEEWAKRMAKKYQFQIHVKDGQFRIE [G31F],7.08
10,LTVHVGNVTYHFDNPEQAEEWAKRMAKKYQPQIHVKDGQFRIE [G31P],2.39
11,LTVHVGNVTYHFDNPEQAEEWAKRMAKKYQIQIHVKDGQFRIE [G31I],7.6
12,LTVHVGNVTYHFDNPEQAEEWAKRMAKKYQTQIHVKDGQFRIE [G31T],6.37
13,LTVHVGNVTYHFDNPEQAEEWAKRMAKKYQAQIHVKDGQFRIE [G31A],7.77
14,LTVHVGNVTYHFDNPEQAEEWAKRMAKKYQQQIHVKDGQFRIE [G31Q],5.22
15,LTVHVGNVTYHFDNPEQAEEWAKRMAKKYQYQIHVKDGQFRIE [G31Y],5.74
16,LTVHVGNVTYHFDNPEQAEEWAKRMAKKMQGQIHVKDGQFRIE [Y29M],5.64
17,LTVHVGNVTYHFDNPEQAEEWAKRMAKKLQGQIHVKDGQFRIE [Y29L],7.03
18,LTVHVGNVTYHFDNPEQAEEWAKRMAKKTQGQIHVKDGQFRIE [Y29T],4.7
19,LTVHVGNVTYHFDNPEQAEEWAKRMAKKIQGQIHVKDGQFRIE [Y29I],5.52
20,LTVHVGNVTYHFDNPEQAEEWAKRMAKKDQGQIHVKDGQFRIE [Y29D],2.08

row,Variant,folding stability dG [kJ/mol]
1,LTVHVGNPTYHFDNPEQAEEWAKRMAKKYQGQIHVKDGQFRIE [V8P],1.8
2,LTVHVGNFTYHFDNPEQAEEWAKRMAKKYQGQIHVKDGQFRIE [V8F],7.54
3,LTVHVGNITYHFDNPEQAEEWAKRMAKKYQGQIHVKDGQFRIE [V8I],7.13
4,LTVHVGNVTYHFDNPEQAEEWAKRMAKKYQGQIHVKDGQFRIF [E43F],7.05
5,LTVHVGNVTYHFDNPEQMEEWAKRMAKKYQGQIHVKDGQFRIE [A18M],5.05
6,LTVHVGNVTYHFDNPEQKEEWAKRMAKKYQGQIHVKDGQFRIE [A18K],2.93
7,LTVHVGNVTYHFDNPEQREEWAKRMAKKYQGQIHVKDGQFRIE [A18R],3.69
8,LTVHVGNVTYHFDNPEQGEEWAKRMAKKYQGQIHVKDGQFRIE [A18G],5.21
9,LTVHVGNVTYHFDNPEQFEEWAKRMAKKYQGQIHVKDGQFRIE [A18F],6.09
10,LTVHVGNVTYHFDNPEQSEEWAKRMAKKYQGQIHVKDGQFRIE [A18S],2.31
11,LTVHVGNVTYHFDNPEQPEEWAKRMAKKYQGQIHVKDGQFRIE [A18P],-0.502
12,LTVHVGNVTYHFDNPEQNEEWAKRMAKKYQGQIHVKDGQFRIE [A18N],0.188
13,LTVHVGNVTYHFDNPEQAEEWAKRMAVKYQGQIHVKDGQFRIE [K27V],6.69
14,LTVHVGNVTYHFDNPEQAEEWAKRMAQKYQGQIHVKDGQFRIE [K27Q],6.94
15,LTVHVGNVTYHFDIPEQAEEWAKRMAKKYQGQIHVKDGQFRIE [N14I],6.24
16,LTVHVGNVTYHFDHPEQAEEWAKRMAKKYQGQIHVKDGQFRIE [N14H],6.58
17,LTVHVGNVTYHFDQPEQAEEWAKRMAKKYQGQIHVKDGQFRIE [N14Q],5.72
18,LTVHVGNVTYHFDTPEQAEEWAKRMAKKYQGQIHVKDGQFRIE [N14T],7.38
19,LTVHVGNVTYHFDWPEQAEEWAKRMAKKYQGQIHVKDGQFRIE [N14W],5.2
20,LEVHVGNVTYHFDNPEQAEEWAKRMAKKYQGQIHVKDGQFRIE [T2E],6.19

row,Variant,folding stability dG [kJ/mol]
1,LGVHVGNVTYHFDNPEQAEEWAKRMAKKYQGQIHVKDGQFRIE [T2G],3.44
2,LTVHVGNVTYHFDNPEQAEEWAKRMFKKYQGQIHVKDGQFRIE [A26F],5.44
3,LTVHVGNVTYHFDNPEQAEEWAKRMMKKYQGQIHVKDGQFRIE [A26M],5.35
4,LTVHVGNVTYHFDNPEQAEEWAKRMQKKYQGQIHVKDGQFRIE [A26Q],4.05
5,LTVHVGWVTYHFDNPEQAEEWAKRMAKKYQGQIHVKDGQFRIE [N7W],6.91
6,LTVHVGEVTYHFDNPEQAEEWAKRMAKKYQGQIHVKDGQFRIE [N7E],5.74
7,LTVHVGNVTYHFDNPEQAEEWAKRMAKKYQGQIHLKDGQFRIE [V35L],6.8
8,LTVHVGNVTYHFDNPWQAEEWAKRMAKKYQGQIHVKDGQFRIE [E16W],6.97
9,LTVHVGNVTYHFDNPLQAEEWAKRMAKKYQGQIHVKDGQFRIE [E16L],7.02
10,LTVHVGNVTYHFDNPTQAEEWAKRMAKKYQGQIHVKDGQFRIE [E16T],7.02
11,LTVHVGNVTYHFDNPDQAEEWAKRMAKKYQGQIHVKDGQFRIE [E16D],6.67
12,LTVHVGNVTYHFDNPVQAEEWAKRMAKKYQGQIHVKDGQFRIE [E16V],7.33
13,LTVHVGNVTYHFDNPCQAEEWAKRMAKKYQGQIHVKDGQFRIE [E16C],10.6
14,LTVHVGNVTYHFDNPEQAEEWIKRMAKKYQGQIHVKDGQFRIE [A22I],5.87
15,LTVHVGNVTYHFDNPEQAEEWVKRMAKKYQGQIHVKDGQFRIE [A22V],5.16
16,LTVHVGNVTYHFDNPEQAEEWAKPMAKKYQGQIHVKDGQFRIE [R24P],-2.82
17,LTVHVGNVTYHFDNPEQAEEWAKKMAKKYQGQIHVKDGQFRIE [R24K],6.83
18,LTVHVGNVTYHFDNPEQAEEWAKDMAKKYQGQIHVKDGQFRIE [R24D],4.08
19,LTVHVGNVTYHFDNPEQAEEWAKNMAKKYQGQIHVKDGQFRIE [R24N],4.58
